Laboratory results reported in patent US20250076311A1 (Chugai, published 2025).
Blank lines part the entries; values can stand above or below the binder they belong to.

How the values were obtained:
[1] = target: T1, human FcγRIIaR extracellular domain with C-terminal His-tag (human, UniProt P12318 34-217); test: SPR (BIACORE), antibody captured, FcgR analyte
T1 construct: also called human FcgRIIaR; FcγRIIa type R; not shown: His-tag added to the C-terminus
T1 chain: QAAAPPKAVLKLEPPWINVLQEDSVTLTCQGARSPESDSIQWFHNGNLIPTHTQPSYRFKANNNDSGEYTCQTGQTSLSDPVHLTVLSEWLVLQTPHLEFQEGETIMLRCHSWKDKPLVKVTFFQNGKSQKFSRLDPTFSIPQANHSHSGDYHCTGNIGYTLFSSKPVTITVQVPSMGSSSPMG

[2] = target: T2, cynomolgus monkey FcγRIIIaS extracellular domain with C-terminal His-tag (cynomolgus monkey, UniProt A3RFZ7 21-206 (rhesus entry)); test: SPR (BIACORE), antibody captured, FcgR analyte
T2 construct: also called cyno FcgRIIIaS; cynoFcγRIIIaS; not shown: His-tag added to the C-terminus

[3] = target: T3, human FcγRIIIaV extracellular domain with C-terminal His-tag (human, UniProt P08637 17-208); test: SPR (BIACORE), antibody captured, FcgR analyte
T3 construct: also called human FcgRIIIaV; not shown: His-tag added to the C-terminus

[4] = target: T4, human FcγRIIaH extracellular domain with C-terminal His-tag (human, UniProt P12318 34-217); test: SPR (BIACORE); KD of SG1 / KD of variant
T4 construct: also called human FcgRIIaH; FcγRIIa type H; not shown: His-tag added to the C-terminus
T4 sequence: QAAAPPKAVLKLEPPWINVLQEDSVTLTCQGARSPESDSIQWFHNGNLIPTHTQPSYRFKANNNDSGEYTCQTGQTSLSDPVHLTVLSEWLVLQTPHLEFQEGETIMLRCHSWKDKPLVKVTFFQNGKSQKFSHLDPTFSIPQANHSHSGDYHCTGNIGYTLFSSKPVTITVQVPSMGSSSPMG

[5] = target: T2, cynomolgus monkey FcγRIIIaS …; test: SPR (BIACORE); KD of SG1 / KD of variant
[6] = target: T5, human FcγRIIb extracellular domain, His-tagged (human, UniProt P31994 43-217); test: SPR, 25C, antibody captured, FcγR as analyte
T5 construct: also called FcgRIIb (human)
T5 sequence: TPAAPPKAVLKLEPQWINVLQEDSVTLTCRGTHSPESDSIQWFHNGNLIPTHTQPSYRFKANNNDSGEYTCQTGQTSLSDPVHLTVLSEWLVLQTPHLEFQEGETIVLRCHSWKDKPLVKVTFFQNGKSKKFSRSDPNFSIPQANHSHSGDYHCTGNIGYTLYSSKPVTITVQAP
Experimental: (§1) The kinetic analysis of interactions between these antibodies and FcγR was carried out using BIACORE® T200 or BIACORE® 4000 (GE Healthcare). HBS-EP+ (GE Healthcare) was used as the running buffer, and the measurement temperature was set to 25° C. […] After the measurement, the antibody captured on the chip was washed off by allowing reaction with 10 mM glycine-HCl, pH1.5 and 25 mM NaOH so that the chip was regenerated and used repeatedly. The sensorgrams obtained as measurement results were analyzed by the 1:1 Langmuir binding model using the BIACORE® Evaluation Software to calculate the binding rate constant ka (L/mol/s) and dissociation rate constant kd (1/s), and the dissociation constant KD (mol/L) was calculated from these values. […] Regarding such interactions, KD values were calculated using the following 1:1 binding model described in BIACORE® T100 Software Handbook BR1006-48 Edition AE.

[7] = target: T6, cynomolgus monkey FcγRIIIaS extracellular domain with C-terminal His-tag (cynomolgus monkey, UniProt Q8SPW2 21-206 at identity 1.00)); test: SPR (Biacore), antibody captured, FcgR analyte
T6 construct: also called cyno FcgRIIIaS; cynoFcγRIIIaS
T6 chain: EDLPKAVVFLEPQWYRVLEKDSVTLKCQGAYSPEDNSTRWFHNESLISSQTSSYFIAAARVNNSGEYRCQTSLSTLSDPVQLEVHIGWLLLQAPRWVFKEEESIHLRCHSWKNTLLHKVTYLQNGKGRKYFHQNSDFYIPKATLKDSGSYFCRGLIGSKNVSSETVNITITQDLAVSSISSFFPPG
Experimental: as §1

T3 sequence (P08637 17-208 F176V): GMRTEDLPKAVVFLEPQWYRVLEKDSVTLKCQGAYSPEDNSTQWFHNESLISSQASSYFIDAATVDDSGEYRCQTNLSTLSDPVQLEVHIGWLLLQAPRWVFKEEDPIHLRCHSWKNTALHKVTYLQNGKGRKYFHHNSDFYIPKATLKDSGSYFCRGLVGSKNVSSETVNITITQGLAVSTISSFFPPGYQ

B1: M103205H795-MY117/M103202L889-SK1 (antibody)
heavy: QVTLKESGPVLVKPTETLTLTCTVSGIDLSHDDISWVRQAPGKGLEWVGIISYAGSTYYASWAKGRLTISKDTSKNQVVLTMTNMDPVDTATYYCARGVPAYSHGGDLWGQGTLVTVSSASTKGPSVFPLAPSSKSTSGGTAALGCLVKDYFPEPVTVSWNSGALTSGVHTFPAVLQSSGLYSLSSVVTVPSSSLGTQTYICNVNHKPSNTKVDKKVEPKSCDKTHTCPPCPAPEWLNGPSVFLFPPKPKDTLMISRTPEVTCVVVDVAEEDPEVKFNWYVDGVEVHNAKTKPREEQYNSTYRVVSVLTVLHQDWLNGKEYKCKVSNKALPAPIEKTISKAKGQPREPQVYTLPPSREEMTKNQVSLTCLVKGFYPSDIAVEWESNGQPENNYKTTPMVLDSDGSFFLYSKLTVDKSRWQQGNVFSCSVMHEALHNHYTQKSLSLSP
light: DIVMTQSPATLSLSPGERATLSCTSSQSVYHANWLSWFQQKPGQPPKLLIYWASTLAYGVPSRFSGSGSGTDFTLTISSLQPEDAATYYCAGGYGGGRYAFGQGTKVEIKRTVAAPSVFIFPPSDEQLKSGTASVVCLLNNFYPREAKVQWKVDNALQSGNSQESVTEQDSKDSTYSLSSTLTLSKADYEKHKVYACEVTHQGLSSPVTKSFNRGEC
notes: Fc variant of MS1032LO06-SG1; EU numbering
Kd [1]: 1000 nM
Kd [2]: 1000 nM
Kd [3]: 7900 nM
KD fold (SG1 = 1) [4]: 0.5 fold
KD fold (SG1 = 1) [5]: 0.36 fold

B4: MS103205H795-SG1016/M103202L889-SK1 (antibody, human IgG1, kappa)
heavy: QVTLKESGPVLVKPTETLTLTCTVSGIDLSHDDISWVRQAPGKGLEWVGIISYAGSTYYASWAKGRLTISKDTSKNQVVLTMTNMDPVDTATYYCARGVPAYSHGGDLWGQGTLVTVSSASTKGPSVFPLAPSSKSTSGGTAALGCLVKDYFPEPVTVSWNSGALTSGVHTFPAVLQSSGLYSLSSVVTVPSSSLGTQTYICNVNHKPSNTKVDKKVEPKSCDKTHTCPPCPAPELLNGPSVFLFPPKPKDTLMISRTPEVTCVVVDVSEEDPEVKFNWYVDGVEVHNAKTKPREEQYNSTYRVVSVLTVLHRDWLNGKEYKCKVSNKALPKPIEKTISKAKGQPREPQVYTLPPSREEMTKNQVSLTCLVKGFYPSDIAVEWESNGQPENNYKTTPMVLKSDGSFFLYSKLTVDKSRWQQGNVFSCSVMHEALHAHYTQKSLSLSP
light: DIVMTQSPATLSLSPGERATLSCTSSQSVYHANWLSWFQQKPGQPPKLLIYWASTLAYGVPSRFSGSGSGTDFTLTISSLQPEDAATYYCAGGYGGGRYAFGQGTKVEIKRTVAAPSVFIFPPSDEQLKSGTASVVCLLNNFYPREAKVQWKVDNALQSGNSQESVTEQDSKDSTYSLSSTLTLSKADYEKHKVYACEVTHQGLSSPVTKSFNRGEC
notes: Built from the text: Q311R/D399K introduced into SG1012; also called MS1032LO06-SG1016
fold enhanced affinity compared to SG1 [6]: 10 fold

B5: M103205H795-MY458/M103202L889-SK1 (antibody, human IgG1, kappa)
heavy: QVTLKESGPVLVKPTETLTLTCTVSGIDLSHDDISWVRQAPGKGLEWVGIISYAGSTYYASWAKGRLTISKDTSKNQVVLTMTNMDPVDTATYYCARGVPAYSHGGDLWGQGTLVTVSSASTKGPSVFPLAPSSKSTSGGTAALGCLVKDYFPEPVTVSWNSGALTSGVHTFPAVLQSSGLYSLSSVVTVPSSSLGTQTYICNVNHKPSNTKVDKKVEPKSCDKTHTCPPCPAYELLTGPSVFLFPPKPKDTLMISRTPEVTCVVVDVSDEDPEVKFNWYVDGVEVHNAKTKPREEQYNSTYRVVSVLTVLHQDWLNGKEYKCKVSNKALPKPIEKTISKAKGQPREPQVYTLPPSREEMTKNQVSLTCLVKGFYPSDIAVEWESNGQPENNYKTTPPVLDSDGSFFLYSKLTVDKSRWQQGNVFSCSVMHEALHNHYTQKSLSLSP
light: DIVMTQSPATLSLSPGERATLSCTSSQSVYHANWLSWFQQKPGQPPKLLIYWASTLAYGVPSRFSGSGSGTDFTLTISSLQPEDAATYYCAGGYGGGRYAFGQGTKVEIKRTVAAPSVFIFPPSDEQLKSGTASVVCLLNNFYPREAKVQWKVDNALQSGNSQESVTEQDSKDSTYSLSSTLTLSKADYEKHKVYACEVTHQGLSSPVTKSFNRGEC
notes: Substitutions in EU numbering on SG1
Kd [7]: 1900 nM

B6: MS103205H795-SG1012/M103202L889-SK1 (antibody, human IgG1, kappa)
heavy: QVTLKESGPVLVKPTETLTLTCTVSGIDLSHDDISWVRQAPGKGLEWVGIISYAGSTYYASWAKGRLTISKDTSKNQVVLTMTNMDPVDTATYYCARGVPAYSHGGDLWGQGTLVTVSSASTKGPSVFPLAPSSKSTSGGTAALGCLVKDYFPEPVTVSWNSGALTSGVHTFPAVLQSSGLYSLSSVVTVPSSSLGTQTYICNVNHKPSNTKVDKKVEPKSCDKTHTCPPCPAPELLNGPSVFLFPPKPKDTLMISRTPEVTCVVVDVSEEDPEVKFNWYVDGVEVHNAKTKPREEQYNSTYRVVSVLTVLHQDWLNGKEYKCKVSNKALPKPIEKTISKAKGQPREPQVYTLPPSREEMTKNQVSLTCLVKGFYPSDIAVEWESNGQPENNYKTTPMVLDSDGSFFLYSKLTVDKSRWQQGNVFSCSVMHEALHAHYTQKSLSLSP
light: DIVMTQSPATLSLSPGERATLSCTSSQSVYHANWLSWFQQKPGQPPKLLIYWASTLAYGVPSRFSGSGSGTDFTLTISSLQPEDAATYYCAGGYGGGRYAFGQGTKVEIKRTVAAPSVFIFPPSDEQLKSGTASVVCLLNNFYPREAKVQWKVDNALQSGNSQESVTEQDSKDSTYSLSSTLTLSKADYEKHKVYACEVTHQGLSSPVTKSFNRGEC
notes: also called MS1032LO06-SG1012
fold enhanced affinity compared to SG1 [6]: 10 fold

Second part, the binder after the results:

fold enhanced affinity compared to SG1 [6]: 10 fold
B2: MS103240H795-SG1074/M103202L1045-SK1 (antibody, name in EU numbering)
heavy: QVQLVESGGGLVQPGGSLRLSCAVSGIDLSHDDISWVRQAPGKGLEWVSIISYAGSTYYASWAKGRLTISKDTSKNQVVLTMTNMDPVDTATYYCARGVPAYSHGGDLWGQGTLVTVSSASTKGPSVFPLAPSSKSTSGGTAALGCLVKDYFPEPVTVSWNSGALTSGVHTFPAVLQSSGLYSLSSVVTVPSSSLGTQTYICNVNHKPSNTKVDKKVEPKSCDKTHTCPPCPAPELLNGPSVFLFPPKPKDTLMISRTPEVTCVVVDVSDEDPEVKFNWYVDGVEVHNAKTKPREELYNSTYRVVSVLTVLHRDWLNGKEYKCKVSNTALPKPIEKTISKAKGQRREPQVYTLPPSREEMTKNQVSLTCLVKGFYPSDIAVEWESNGQPENNYKTTPPVLDSDGSFFLYSKLTVDKSRWQQGNVFSCSVLHEALHAHTTRKELSLSP
light: DIVMTQSPATLSLSPGERATLSCTTSQSVYHENWLSWFQQKPGQPPKLLIYWASTLAYGVPSRFSGSGSGTDFTLTISSLQPEDAATYYCAGGYGGGRYAFGQGTKVEIKRTVAAPSVFIFPPSDEQLKSGTASVVCLLNNFYPREAKVQWKVDNALQSGNSQESVTEQDSKDSTYSLSSTLTLSKADYEKHKVYACEVTHQGLSSPVTKSFNRGEC
notes: also called MS1032LO19-SG1074

fold enhanced affinity compared to SG1 [6]: 10 fold
B3: MS103240H795-SG1080/M103202L1045-SK1 (antibody, name in EU numbering)
heavy: QVQLVESGGGLVQPGGSLRLSCAVSGIDLSHDDISWVRQAPGKGLEWVSIISYAGSTYYASWAKGRLTISKDTSKNQVVLTMTNMDPVDTATYYCARGVPAYSHGGDLWGQGTLVTVSSASTKGPSVFPLAPSSKSTSGGTAALGCLVKDYFPEPVTVSWNSGALTSGVHTFPAVLQSSGLYSLSSVVTVPSSSLGTQTYICNVNHKPSNTKVDKKVEPKSCDKTHTCPPCPAPELLNGPSVFLFPPKPKDTLMISRTPEVTCVVVDVSDEDPEVKFNWYVDGVEVHNAKTKPREELYNSTYRVVSVLTVLHRDWLNGKEYKCKVSNTALPKPIEKTISKAKGQRREPQVYTLPPSREEMTKNQVSLTCLVKGFYPSDIAVEWESNGQPENNYKTTPPVLDSDGSFFLYSKLTVDKSRWQQGNVFSCSVMHEALHAHYTRKELSLSP
light: DIVMTQSPATLSLSPGERATLSCTTSQSVYHENWLSWFQQKPGQPPKLLIYWASTLAYGVPSRFSGSGSGTDFTLTISSLQPEDAATYYCAGGYGGGRYAFGQGTKVEIKRTVAAPSVFIFPPSDEQLKSGTASVVCLLNNFYPREAKVQWKVDNALQSGNSQESVTEQDSKDSTYSLSSTLTLSKADYEKHKVYACEVTHQGLSSPVTKSFNRGEC
notes: Built from the text: MY209 plus Q311R/P343R and N434A/Q438R/S440E; also called MS1032LO19-SG1080
